The values below come from US20220204601A1 (ADEL, published 2022).

For assay [1], the target named is T1, K280-ac protein fragment (human).
T1 construct: also called mAC
T1 peptide: VQIINK(Ac)KLDLSN
The assay is described as follows: ELISA, K280-ac coated at 250 ng/well. As to the method:
In addition, binding of the K280-ac protein fragment prepared in Preparation Example 1 with the ADEL-Y01h (v01 to v12) antibodies prepared in Preparation Example 2 was measured by ELISA.
First, plates were treated with the K280-ac protein fragment at 250 ng/well and reaction was allowed to proceed at 4° C. overnight. The next day, washing with a washing buffer was performed three times, and then treatment with a primary antibody was performed with 8 concentrations (2 μg, 1 μg, 0.5 μg, 0.25 μg, 0.12 μg, 0.06 μg, 0.03 μg, 0.01 μg). As a secondary antibody, HRP-labeled anti-human IgG antibody was used.

Another assay deals with T2, Tau (Acetylation -).
T2 construct: also called non-Ac tau protein; non-acetylated wild type tau protein
T2 sequence (tau protein, as listed by the source): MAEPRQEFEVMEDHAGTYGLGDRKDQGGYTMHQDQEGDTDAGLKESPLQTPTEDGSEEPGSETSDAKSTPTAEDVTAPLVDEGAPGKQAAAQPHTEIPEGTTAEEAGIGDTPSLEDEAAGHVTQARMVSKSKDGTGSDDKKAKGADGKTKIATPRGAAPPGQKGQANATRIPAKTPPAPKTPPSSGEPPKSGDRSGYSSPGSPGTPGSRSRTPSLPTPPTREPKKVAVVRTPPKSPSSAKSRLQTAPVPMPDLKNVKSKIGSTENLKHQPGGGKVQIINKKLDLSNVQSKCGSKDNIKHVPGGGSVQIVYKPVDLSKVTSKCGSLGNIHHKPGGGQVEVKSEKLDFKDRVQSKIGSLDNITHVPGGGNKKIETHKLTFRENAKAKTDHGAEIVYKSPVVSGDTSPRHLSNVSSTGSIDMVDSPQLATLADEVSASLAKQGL
The assay is described as follows: western blot. As to the method:
(§1) In order to identify specific binding of the ADEL-Y01m antibody prepared in Preparation Example 2 to acetylated tau protein, the wild-type tau protein and the tau protein (Tau K280A) in which the 280th amino acid lysine is replaced with alanine were acetylated in vitro. Here, acetylation of the wild-type Tau protein and the Tau K280A protein was performed in the same manner as in the preparation method of the acetylated K18 protein fragment in Preparation Example 1. Then, an antigen-antibody specific binding reaction of the ADEL-Y01m antibody was checked through western blotting.
(§2) First, the concentrations of the wild-type Tau protein and the Tau K280A protein were measured through Bradford Assay. Each of the proteins was mixed with 4× sample buffer (60 mM Tris-HCl [pH 6.8], 2% w/v SDS, 25% v/v glycerol, 14.4 mM v/v β-mercaptoethanol, and bromophenol blue). Thereafter, each protein was electrophoresed on an SDS-PAGE gel. Then, the electrophoresed gel was separated and transferred onto a PVDF membrane (BioRad, California, USA). Treatment with a blocking buffer (0.1% v/v Tween-20 [PBST], 3% w/v BSA, or 5% v/v skim milk in PBS buffer) was performed and reaction was allowed to proceed for 1 hour. Then, treatment with an anti-acetyl-lysine antibody (anti-acetyl-lysine, Cell Signaling, 9441) or ADEL-Y01m antibody as a primary antibody was performed and reaction was allowed to proceed at 4° C. overnight. The next day, the PVDF membrane was washed three times with a washing buffer (0.1% v/v Tween-20 [PBST] in PBS buffer), and then treated with HRP-labeled anti-mouse IgG antibody (Bioxcell, BE0083). The PVDF membrane was treated with a chemiluminescent reagent (Thermo Fisher Scientific). Then, measurement and analysis were performed using x-ray film and ImageJ software (NIH, Bethesda, Md.).

The next assay concerns the target T3, Tau K280A protein (human, UniProt P10636 2-758).
T3 construct: Tau protein with lysine 280 replaced by alanine, not acetylated
The assay can be described thus: western blot. On the procedure: as §1, §2

Assay [2] deals with T4, acetylated Tau K280A protein (human, UniProt P10636 2-758, acetylated in vitro with P300 enzyme and acetyl CoA; sites not stated).
T4 construct: Tau K280A acetylated in the same manner as the acetylated K18 fragment; also called Tau K280A (acetylated)
T4 sequence (P10636 other isoform, or with tags, fused parts or gaps K280A K280A limits assumed): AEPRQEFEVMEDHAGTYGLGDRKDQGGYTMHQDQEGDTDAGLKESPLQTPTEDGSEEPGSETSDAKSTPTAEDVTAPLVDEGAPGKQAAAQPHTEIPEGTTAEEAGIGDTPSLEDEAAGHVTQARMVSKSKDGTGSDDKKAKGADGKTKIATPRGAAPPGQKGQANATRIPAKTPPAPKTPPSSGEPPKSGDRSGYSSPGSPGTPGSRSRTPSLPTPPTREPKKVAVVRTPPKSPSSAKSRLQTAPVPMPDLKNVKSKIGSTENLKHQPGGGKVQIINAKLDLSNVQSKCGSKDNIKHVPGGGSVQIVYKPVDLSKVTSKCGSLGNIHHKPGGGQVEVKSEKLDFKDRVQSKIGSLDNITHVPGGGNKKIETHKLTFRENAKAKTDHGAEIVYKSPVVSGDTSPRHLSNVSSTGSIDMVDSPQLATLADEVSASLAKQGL
The assay can be described thus: western blot. On the procedure: as §1, §2

For assay [3], the target named is T1, K280-ac protein fragment. The assay can be described thus: BLI, Octet K2; antibody fixed on AR2G biosensor, K280-ac fragment in solution. As to the method:
(§3) An affinity between the K280-ac protein fragment prepared in Preparation Example 1 and the ADEL-Y01m antibody prepared in Preparation Example 2 was measured through the Octet® K2 System (Fortebio).
(§4) The ADEL-Y01m antibody was fixed on AR2G biosensor according to the manufacturer's manual. The surface of the biosensor was hydrated with water for 10 minutes, and then activated using a mixture of 20 mM 1-ethyl-3-[3-dimethylaminopropyl] carbodiimide hydrochloride (EDC) and 10 mM N-hydroxysulfosuccinimide (s-NHS). The ADEL-Y01m antibody was fixed on the activated biosensor using 10 mM sodium acetate buffer (pH 5.0) and quenched with 1M ethanol amine (pH 8.0) for 5 minutes. The biosensor on which the ADEL-Y01m antibody is fixed was immersed in 1×PBS buffer (pH 7.4) for 60 seconds, to establish a baseline. Then, the biosensor was immersed for 60 seconds in wells containing different concentrations of the K280-ac protein fragment (antigen) or BSA-bound peptide. Thereafter, the biosensor was immersed again in 1×PBS buffer (pH 7.4) for 10 minutes so that dissociation occurs. The experimental data were evaluated by Octet Data Analysis (SW version: 9.0.0.10).

The target of assay [4] is T1, K280-ac protein fragment. The assay can be described thus: Octet K2 system, antibody fixed on AR2G biosensor, antigen in solution. On the procedure: as §3, §4

Ends that are not written are not given here.

T3 sequence (P10636 other isoform, or with tags, fused parts or gaps K280A K280A limits assumed): as above

B1: ADEL-Y01h v07 antibody (antibody, V domains shown)
VH: EVTLKESGPTLVKPTQTLTLTCTVSGDSITSGYWNWIRQPPGKALEYLAYIRYSGRTYYNPSLKSRLTITRDTSKNQVVLTMTNMDPVDTATYYCASVYFTYWGQGTLVTVSS
VL: DVVMTQSPLSLPVTLGQPASISCKSSQSLLDSDGKTYLNWFQQRPGQSPKRLISLVSKLDSGVPDRFSGSGSGTDFTLKISRVEAEDVGVYYCWQGSHFPYTFGQGTKLEIK
notes: Humanized antibody; It was detected with anti-human IgG; also called Y01h01v07
For B1, the binding result in the assay with K280-ac protein fragment [1] is reported as “binds”.

B2: ADEL-Y01m antibody (antibody, V domains shown)
VH: EVQLEESGPSLVKPSQTLSLTCSVTGDSITSGYWNWIRKFPGNKLEYMGYIRYSGRTYYNPSLKSRISITRDTSKNQFYLQLISVTTEDTATYYCASVYFTYWGQGTLVTVSS
VL: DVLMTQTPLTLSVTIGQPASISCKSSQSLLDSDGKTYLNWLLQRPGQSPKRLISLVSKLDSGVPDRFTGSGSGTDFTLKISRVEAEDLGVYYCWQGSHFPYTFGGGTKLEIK
notes: Mouse monoclonal antibody from a hybridoma; also called Y01m01; antibody produced from the #15E5 hybridoma cell line (clone #1)
On to B2, for which the binding result (with Tau (Acetylation -); with Tau K280A protein; in assay [2]) was “no binding” in each case. Moreover, the Kd in the assay with K280-ac protein fragment [3] worked out at 257 pM. In the assay with K280-ac protein fragment [4], this molecule displayed a koff of 0.000157 s⁻¹. Moreover, in the assay with K280-ac protein fragment [4], the kon was determined as 447000 M⁻¹ s⁻¹.
